One block for each molecule: values may come before it.
Tests used:
[1] = molecular target: Trefoil factor 3 (TFF3), recombinant mature form (residues 22-80) (human); assay: SPR; Biacore T200; TFF peptides immobilised on a CM5 chip (10 mM sodium acetate pH 4.0); purified proteins as analytes at 30 µL/min, 2 min association; multiple cycle kinetics, 1:1 model
[2] = molecular target: T1, murine TFF3 (mTFF3) (mouse, UniProt Q62395 23-81); assay: SPR
T1 chain: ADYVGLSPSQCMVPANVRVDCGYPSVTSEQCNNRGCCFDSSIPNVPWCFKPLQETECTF

- Kd [1]: 2030 nM
Molecule: extracellular domain of CD147 (CD147^ECD) (domain or fragment)

- Kd [2]: 2510 nM
B1: murine CD147^ECD (mCD147^ECD) (domain or fragment)
chain: AAGTIQTSVQEVNSKTQLTCSLNSSGVDIVGHRWMRGGKVLQEDTLPDLHTKYIVDADDRSGEYSCIFLPEPVGRSEINVEGPPRIKVGKKSEHSSEGELAKLVCKSDASYPPITDWFWFKTSDTGEEEAITNSTEANGKYVVVSTPEKSQLTISNLDVNVDPGTYVCNATNAQGTTRETISLRVRSR

Reference: publication PMC8280106 (2021)
